Data taken from paper PMC8497992.

How the values were obtained:
Test in all cases: fluorescence polarization
Details in all cases: 50 mM Tris-HCl pH 8.0, 50 mM KCl, 1 mM EDTA; 50 nM labeled oligonucleotide; temperature not stated
SAMHD1 HD domain WT = SAMHD1 HD domain WT (UniProt Q9Y3Z3)
[1] = target: SAMHD1 HD domain R366C R366C (UniProt Q9Y3Z3)
[2] = target: SAMHD1 HD domain R366H R366H (UniProt Q9Y3Z3)
Chain of SAMHD1 HD domain R366H R366H (Q9Y3Z3 114-626 R366H): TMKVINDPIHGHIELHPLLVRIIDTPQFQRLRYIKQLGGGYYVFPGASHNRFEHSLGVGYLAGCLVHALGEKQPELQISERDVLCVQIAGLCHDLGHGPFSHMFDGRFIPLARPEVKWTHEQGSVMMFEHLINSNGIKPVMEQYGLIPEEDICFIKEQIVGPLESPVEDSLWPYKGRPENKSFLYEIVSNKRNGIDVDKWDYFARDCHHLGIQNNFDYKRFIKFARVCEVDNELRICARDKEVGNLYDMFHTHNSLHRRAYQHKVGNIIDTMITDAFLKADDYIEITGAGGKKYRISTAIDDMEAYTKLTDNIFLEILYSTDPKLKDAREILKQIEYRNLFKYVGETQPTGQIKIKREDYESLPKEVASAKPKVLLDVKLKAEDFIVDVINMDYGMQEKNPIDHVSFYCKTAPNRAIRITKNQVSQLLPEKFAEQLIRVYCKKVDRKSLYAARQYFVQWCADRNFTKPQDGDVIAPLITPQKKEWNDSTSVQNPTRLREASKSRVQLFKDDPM

Chain of SAMHD1 HD domain WT (Q9Y3Z3 114-626): as the sequence (Q9Y3Z3 114-626 R366H) above, with H253R counted along it
Chain of SAMHD1 HD domain R366C R366C (Q9Y3Z3 114-626 R366C): as the sequence (Q9Y3Z3 114-626 R366H) above, with H253C counted along it

Substance | Kd (SAMHD1 HD domain WT) | Kd [1] | Kd [2]
6FAM-ssDNA57 | 387 nM | 3820 nM | 2960 nM
6FAM-ssRNA40 | 885 nM | 2250 nM | 2480 nM
